Assay [1] concerns the target T1, human prostaglandin E2 receptor 4 (EP4) (Homo sapiens, UniProt P35408).
T1 construct: gene PTGER4
Kind of assay: biochemical.

Assay [2] deals with Gαi2 (alpha subunit of Gi protein) (UniProt P04899). Nature of the assay: ELISA; Gα (10 μg/ml) immobilised in a high-binding 96-well plate, blocked with 5% skimmed milk; 5-1000 nM P9-EP4 in sarkosyl or in APG added; detected with anti-P9 antibody, HRP anti-mouse IgG and TMB; 25 °C. A general note: In an ELISA, binding on a coated surface is turned into a signal by an enzyme label.

In assay [3] the target is Gαi1 (alpha subunit of Gi protein) (UniProt P63096). Described as above.
The target of assay [4] is Gαs1 (alpha subunit of Gs protein) (UniProt P63092). The assay is described as above.
Assay [5] addresses Gαi3 (alpha subunit of Gi protein) (UniProt P08754). The assay is described as above.

Experimental findings from paper PMC7749421, “Functional expression of human prostaglandin E2 receptor 4 (EP4) in E. coli and characterization of the binding property of EP4 with Gα proteins” (Biochemistry and Biophysics Reports, 2020) are described below.

Sequence of P9-EP4 (human prostaglandin E2 receptor 4, amino acids 1-354, fused to the C-terminus of the P9 envelope protein of phage phi6, with a C-terminal His6 tag) (P35408 1-354 limits assumed): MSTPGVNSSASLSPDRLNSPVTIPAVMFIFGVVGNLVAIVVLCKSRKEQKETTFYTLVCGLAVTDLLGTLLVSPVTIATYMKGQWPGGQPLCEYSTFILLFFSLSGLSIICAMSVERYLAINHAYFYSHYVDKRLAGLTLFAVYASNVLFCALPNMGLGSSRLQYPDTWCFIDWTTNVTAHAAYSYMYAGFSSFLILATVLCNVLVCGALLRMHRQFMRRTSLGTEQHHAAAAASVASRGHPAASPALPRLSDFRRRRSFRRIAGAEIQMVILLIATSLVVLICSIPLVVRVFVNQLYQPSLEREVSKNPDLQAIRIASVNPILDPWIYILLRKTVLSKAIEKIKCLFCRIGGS
Sequence of Gαi1 (alpha subunit of Gi protein) (P63096 whole entry): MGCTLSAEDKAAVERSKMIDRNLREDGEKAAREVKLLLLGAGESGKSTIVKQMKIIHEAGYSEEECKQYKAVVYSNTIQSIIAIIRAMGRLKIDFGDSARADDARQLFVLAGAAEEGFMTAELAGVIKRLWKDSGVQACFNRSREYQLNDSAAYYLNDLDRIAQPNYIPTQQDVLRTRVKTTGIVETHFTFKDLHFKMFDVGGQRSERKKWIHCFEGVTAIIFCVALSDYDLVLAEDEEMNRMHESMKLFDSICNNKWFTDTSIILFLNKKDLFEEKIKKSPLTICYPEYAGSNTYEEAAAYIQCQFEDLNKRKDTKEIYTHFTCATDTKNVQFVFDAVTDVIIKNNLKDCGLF
T1 sequence (P35408 1-354): as the sequence (P35408 1-354 limits assumed) above
Sequence of Gαi2 (alpha subunit of Gi protein) (P04899 whole entry): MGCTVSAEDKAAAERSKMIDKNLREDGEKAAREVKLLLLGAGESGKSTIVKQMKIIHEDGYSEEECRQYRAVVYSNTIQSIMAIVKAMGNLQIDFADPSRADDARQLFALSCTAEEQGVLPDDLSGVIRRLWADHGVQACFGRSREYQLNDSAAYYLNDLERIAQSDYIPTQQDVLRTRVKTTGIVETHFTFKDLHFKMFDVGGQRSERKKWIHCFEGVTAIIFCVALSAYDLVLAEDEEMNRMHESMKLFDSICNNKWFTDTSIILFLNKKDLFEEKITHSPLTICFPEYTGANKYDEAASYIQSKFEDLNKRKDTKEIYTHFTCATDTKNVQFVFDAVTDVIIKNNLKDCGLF
Sequence of Gαs1 (alpha subunit of Gs protein) (P63092 whole entry): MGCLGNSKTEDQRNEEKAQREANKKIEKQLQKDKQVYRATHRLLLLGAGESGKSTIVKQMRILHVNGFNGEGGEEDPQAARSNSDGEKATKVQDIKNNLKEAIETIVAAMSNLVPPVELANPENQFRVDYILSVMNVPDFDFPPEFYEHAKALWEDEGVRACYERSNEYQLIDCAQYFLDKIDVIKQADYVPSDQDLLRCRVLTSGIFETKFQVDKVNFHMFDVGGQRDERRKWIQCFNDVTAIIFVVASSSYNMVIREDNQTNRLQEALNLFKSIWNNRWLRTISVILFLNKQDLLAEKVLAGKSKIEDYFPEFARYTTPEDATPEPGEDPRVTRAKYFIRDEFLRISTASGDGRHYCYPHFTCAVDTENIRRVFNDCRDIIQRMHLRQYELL
Sequence of Gαi3 (alpha subunit of Gi protein) (P08754 whole entry): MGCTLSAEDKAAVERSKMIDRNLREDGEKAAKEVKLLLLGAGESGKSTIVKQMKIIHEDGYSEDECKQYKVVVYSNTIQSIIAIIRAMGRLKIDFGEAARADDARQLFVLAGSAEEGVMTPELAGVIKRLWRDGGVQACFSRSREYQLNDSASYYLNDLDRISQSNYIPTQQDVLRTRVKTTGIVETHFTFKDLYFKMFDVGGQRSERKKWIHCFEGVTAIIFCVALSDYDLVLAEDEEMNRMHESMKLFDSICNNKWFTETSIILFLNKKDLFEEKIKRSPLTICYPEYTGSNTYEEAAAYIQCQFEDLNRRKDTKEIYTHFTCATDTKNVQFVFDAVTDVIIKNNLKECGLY

For `CC(C(=O)Nc1cc(C#N)ccc1CCCC(=O)O)c1ccc(F)c2ccccc12` (centres unmarked) [ONO-AE3-208], the Kd (in general, a measure of binding affinity in units of concentration) in assay [1] worked out at 680 ± 150 nM.
“P9-EP4 (human prostaglandin E2 receptor 4, amino acids 1-354, fused to the C-terminus of the P9 envelope protein of phage phi6, with a C-terminal His6 tag) (from UniProt P35408 1-354)”: the Kd was 175 nM in assay [2], 50 nM in assay [3], 88 nM in assay [4] and 214 nM in assay [5].
